How the values were obtained:
crystal structure = target: the molecule itself; assay: crystal structure
SEC = target: the molecule itself; assay: SEC
AUC = target: the molecule itself; assay: AUC

| Protein | stoichiometry N (crystal structure) | stoichiometry N (SEC) | stoichiometry N (AUC) |
| --- | --- | --- | --- |
| MtmW (ΔN3) (enzyme, Streptomyces argillaceus, UniProt Q194Q1 4-326, looked up) VEFRSLGRSGLSVSEIVYGNLLYPQDDTPDEVVLSSIRAALDAGVTTFDTADVYGMFRSESLLGRALAGTPREELVLCTKVGMPTGFGPNGRGLSRKHVMESVDGSLRRLRVDHIDVYTAHRYDPATPLEELMWTFSDLVRAGKILYVGMSEWPVERIAEAAGIGARLGVPVICHMPRYSMLWRAPEAEVIPACRDLGIGQICYFTLEQGVLTGKYAPGAPPPAGSRATAPKGGRAPLMRRWLDDDKVLGRVERLRPLAEEAGLTTAHLAWVLQNPAVSGAVIGSFNAEQVLANAESAGVRLETDLLVRIDEVLGDSVVHDEE | 8 |  |  |
| MtmW (enzyme, Streptomyces argillaceus, UniProt Q194Q1 1-326, looked up) MVAVEFRSLGRSGLSVSEIVYGNLLYPQDDTPDEVVLSSIRAALDAGVTTFDTADVYGMFRSESLLGRALAGTPREELVLCTKVGMPTGFGPNGRGLSRKHVMESVDGSLRRLRVDHIDVYTAHRYDPATPLEELMWTFSDLVRAGKILYVGMSEWPVERIAEAAGIGARLGVPVICHMPRYSMLWRAPEAEVIPACRDLGIGQICYFTLEQGVLTGKYAPGAPPPAGSRATAPKGGRAPLMRRWLDDDKVLGRVERLRPLAEEAGLTTAHLAWVLQNPAVSGAVIGSFNAEQVLANAESAGVRLETDLLVRIDEVLGDSVVHDEE |  | ~8 | 8 |
